Laboratory results reported in US20240254246A1 (PROMETHEUS BIOSCIENCES, published 2024).
Where two headings read alike, the source gives them in different places.

Tests used:
[1] = target: T1, human CD30L expressed on B16 cells (human, UniProt P32971 1-234); experiment: cell-based or functional assay
T1 sequence (looked up): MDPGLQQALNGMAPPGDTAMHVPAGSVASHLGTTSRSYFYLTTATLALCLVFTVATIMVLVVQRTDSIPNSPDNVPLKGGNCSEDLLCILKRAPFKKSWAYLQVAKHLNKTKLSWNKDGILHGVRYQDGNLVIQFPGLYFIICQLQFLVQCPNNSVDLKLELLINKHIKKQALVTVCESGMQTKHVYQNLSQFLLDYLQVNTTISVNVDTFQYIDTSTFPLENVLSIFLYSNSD

[2] = target: T2, cynomolgus CD30L expressed on HEK293 cells (cynomolgus, UniProt A0A7N9CVX7 1-234); experiment: cell-based or functional assay
T2 sequence: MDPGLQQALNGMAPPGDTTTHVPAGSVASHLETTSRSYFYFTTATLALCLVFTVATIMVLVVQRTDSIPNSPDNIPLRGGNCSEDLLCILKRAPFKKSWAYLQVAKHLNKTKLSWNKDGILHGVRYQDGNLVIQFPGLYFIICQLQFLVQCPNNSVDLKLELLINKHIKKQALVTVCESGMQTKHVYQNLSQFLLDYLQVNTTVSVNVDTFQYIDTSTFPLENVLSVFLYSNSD

[3] = target: T1, human CD30L expressed on B16 cells; experiment: flow cytometry, binding to B16-rhCD30L cells
[4] = target: T2, cynomolgus CD30L expressed on HEK293 …; experiment: flow cytometry, binding to HEK293-cyCD30L cells
[5] = target: T1, human CD30L expressed on B16 cells; experiment: flow cytometry, blocking of CD30-Fc on B16-huCD30L cells; competitor CD30-Fc
[6] = target: T2, cynomolgus CD30L expressed on HEK293 …; experiment: flow cytometry, blocking of CD30-Fc on HEK293-cyCD30L cells; competitor CD30-Fc
[7] = target: T3, human CD30L expressed on cells (human, UniProt P32971 1-234); experiment: cell-based or functional assay
T3 sequence (looked up): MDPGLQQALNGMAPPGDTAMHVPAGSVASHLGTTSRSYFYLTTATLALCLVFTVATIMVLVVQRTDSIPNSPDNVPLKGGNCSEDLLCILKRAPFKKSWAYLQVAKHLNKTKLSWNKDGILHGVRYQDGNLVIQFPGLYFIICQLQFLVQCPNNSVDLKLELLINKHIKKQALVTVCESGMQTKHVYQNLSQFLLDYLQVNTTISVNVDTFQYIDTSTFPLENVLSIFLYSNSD

[8] = target: T4, cynomolgus CD30L expressed on HEK293 cells (cynomolgus, UniProt A0A7N9CVX7 1-234); experiment: cell-based or functional assay; remark: listed apart in the source
T4 sequence: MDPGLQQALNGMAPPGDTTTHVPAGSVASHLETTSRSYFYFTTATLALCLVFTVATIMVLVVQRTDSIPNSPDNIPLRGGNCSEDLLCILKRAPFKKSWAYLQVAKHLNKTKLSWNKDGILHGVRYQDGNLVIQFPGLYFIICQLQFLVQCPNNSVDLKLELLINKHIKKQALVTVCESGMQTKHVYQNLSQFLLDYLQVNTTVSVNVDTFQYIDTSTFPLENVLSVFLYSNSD

[9] = target: T3, human CD30L expressed on cells; experiment: flow cytometry, B16-huCD30L cells
Description: Anti-CD30L antibody binding to a CD30L target was determined by flow cytometry, using B16 cells transfected to express human CD30L (compared to non-transfected B16), and using HEK293 cells transfected to express cynomolgus CD30L (compared to non-transfected HEK293). […] Cell surface bound antibodies were detected using a fluorescently labeled anti-human-IgG or anti-mouse IgG, depending on the Fc portion of the antibodies. After incubation with the secondary antibody, the cells were washed, fixed in a paraformaldehyde solution, and analyzed by flow cytometry to detect antibody binding.

[10] = target: T3, human CD30L expressed on cells; experiment: flow cytometry, blocking of huCD30 binding to B16-huCD30L cells
[11] = target: T5, recombinant cynomolgus CD30L protein (cynomolgus, UniProt A0A7N9CVX7 63-234); experiment: ELISA, 1/50 dil
T5 construct: Recombinant protein used in ELISA; also called cyCD30L
T5 sequence: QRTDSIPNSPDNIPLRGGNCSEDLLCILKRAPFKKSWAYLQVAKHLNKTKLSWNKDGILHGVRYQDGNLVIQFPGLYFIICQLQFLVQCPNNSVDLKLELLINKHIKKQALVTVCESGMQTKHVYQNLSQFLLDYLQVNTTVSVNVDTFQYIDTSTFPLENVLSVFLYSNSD

[12] = target: T5, recombinant cynomolgus CD30L protein; experiment: ELISA, 1/500 dil
[13] = target: T5, recombinant cynomolgus CD30L protein; experiment: ELISA, 1/5000 dil
[14] = target: T6, recombinant human CD30L protein (human, UniProt P32971 63-234); experiment: ELISA, CD30 competitor, undil
T6 construct: Recombinant protein used in ELISA; also called huCD30L
T6 sequence (looked up): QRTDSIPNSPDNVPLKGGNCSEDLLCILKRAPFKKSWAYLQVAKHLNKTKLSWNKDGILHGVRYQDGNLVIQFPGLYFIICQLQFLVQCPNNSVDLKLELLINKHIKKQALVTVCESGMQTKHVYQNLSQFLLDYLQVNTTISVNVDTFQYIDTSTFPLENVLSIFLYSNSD

[15] = target: T6, recombinant human CD30L protein; experiment: ELISA, CD30 competitor, 1/10 dil
[16] = target: T6, recombinant human CD30L protein; experiment: ELISA, CD30 competitor, 1/100 dil
[17] = target: T6, recombinant human CD30L protein; experiment: ELISA, CD30 competitor, 1/1000 dil
[18] = target: T7, recombinant human CD30L protein (human, UniProt P32971 63-234); experiment: ELISA, huCD30L, 1/50 dil
T7 construct: also called rhCD30L; huCD30L (ELISA)
T7 sequence (looked up): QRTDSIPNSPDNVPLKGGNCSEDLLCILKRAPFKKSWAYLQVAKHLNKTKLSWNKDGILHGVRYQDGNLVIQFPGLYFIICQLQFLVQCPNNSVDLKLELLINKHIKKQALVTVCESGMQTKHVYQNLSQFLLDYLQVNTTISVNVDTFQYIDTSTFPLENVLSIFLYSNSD

[19] = target: T7, recombinant human CD30L protein; experiment: ELISA, huCD30L, 1/500 dil
[20] = target: T7, recombinant human CD30L protein; experiment: ELISA, huCD30L, 1/5000 dil
[21] = target: T8, cynomolgus CD30L expressed on cells (cynomolgus, UniProt A0A7N9CVX7 1-234); experiment: flow cytometry, cyCD30L cells, 1/50 dil
T8 construct: whole, on cells; also called cyCD30L; HEK293-cyCD30L
T8 sequence: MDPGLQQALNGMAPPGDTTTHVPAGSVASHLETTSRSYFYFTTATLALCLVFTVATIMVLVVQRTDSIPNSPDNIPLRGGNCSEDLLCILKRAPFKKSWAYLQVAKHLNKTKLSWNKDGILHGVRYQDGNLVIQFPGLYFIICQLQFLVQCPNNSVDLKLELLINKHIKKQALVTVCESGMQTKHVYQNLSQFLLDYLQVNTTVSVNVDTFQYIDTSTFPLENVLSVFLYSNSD

[22] = target: T9, human CD30L expressed on cells (human, UniProt P32971 1-234); experiment: flow cytometry, huCD30L cells, 1/50 dil
T9 construct: also called huCD30L; B16-huCD30L
T9 sequence: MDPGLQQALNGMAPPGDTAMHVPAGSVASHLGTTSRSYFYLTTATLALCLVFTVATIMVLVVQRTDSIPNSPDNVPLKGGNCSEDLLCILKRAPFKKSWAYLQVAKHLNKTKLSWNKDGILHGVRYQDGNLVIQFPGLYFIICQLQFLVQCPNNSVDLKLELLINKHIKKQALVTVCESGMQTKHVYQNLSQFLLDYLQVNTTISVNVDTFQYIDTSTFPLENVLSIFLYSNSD

| Binder | Inhibition of IL-8 release in a dual cell assay (B16-huCD30L cells + K299 cells) IC50 [7] [nM] | Inhibition of IL-8 release in a dual cell assay (HEK293-cyCD30L cells + K299 cells) IC50 [8] [nM] | EC50 [9] [nM] | IC50 [10] [nM] | OD [18] [OD] | OD [19] [OD] | OD [20] [OD] | MFI [21] [MFI] | MFI [22] [MFI] | further results |
| --- | --- | --- | --- | --- | --- | --- | --- | --- | --- | --- |
| anti-CD30L Reference 1 antibody (antibody, human IgG1, lambda, V domains shown) VH: QVQLQESGPGLVKPSETLSLTCTVSGGSISSYIWSWIRQPAGKGLEWIGRIYASGNTNYNPSLKSRVTISVDTSKNQFSLKLSSMTAADTAVYYCARDYRVAGTYYYYYGLDVWGQGTTVTVSS VL: QSALTQPASVSGSPGQSITISCTGTSSDVGVYDYVSWYQQHPGKAPKLMIYEVSNRPSGVSNRFSGSKSGNTASLTISGLQTEDEADYYCSSYTSRSTWVFGGGTKLTVLG | – | – | – | – | – | – | – | – | – | Inhibition of IL-8 release in a dual cell assay (B16-huCD30L cells + K299 cells) IC50 [1]: 1.61 nM; Inhibition of IL-8 release in a dual cell assay (HEK293-cyCD30L cells + K299 cells) IC50 [2]: 0.79 nM; EC50 [3]: 1.12 nM; EC50 [4]: 0.56 nM; IC50 [5]: 1.84 nM; IC50 [6]: 0.73 nM |
| Clone 1, Mouse IgG (antibody, V domains shown, Mouse IgG format) VH: QVQLQESGPGLVKPSETLSLTCTVSGGSISGYYWSWIRQPPVKGLEWIGYIFYSGYTKYNPSLKSRVTISVDTSKNQFSLKLSSVTAADTAVYYCARDRWDFDYWGQGALVTVSS VL: AIQMTQSPSYLSASVGDRVTIACRASQGIRNNLGWYQQKPGKAPKLLIYAESSLQSGVPSRFSGSGSGTDFTLTISSLQPEDFATYYCLQDFNYPYTFGQGTKLEIK | 1.99 | 0.55 | 1.95 | 3.06 | – | – | – | – | – | – |
| Clone 3 (antibody, V domains shown, Hybridoma screening sample; also called CLONE_3 (parental)) VH: QVQLQESGPGLVKPSETLSLTCTVSGGSISGYYWSWIRQPPVKGLEWIGYIFYSGYTKYNPSLKSRVTISVDTSKNQFSLKLSSVTAADTAVYYCARDRWDFDYWGQGALVTVSS VL: not shown | – | – | – | – | – | – | – | – | – | Elisa Binding (OD) [11]: 3.2 OD; Elisa Binding (OD) [12]: 2.35 OD; Elisa Binding (OD) [13]: 0.552 OD; % inhibition [14]: 98%; % inhibition [15]: 95%; % inhibition [16]: 17%; % inhibition [17]: 3% |
| Clone 1, Human IgG1 (antibody, V domains shown, Human IgG1 format) VH: QVQLQESGPGLVKPSETLSLTCTVSGGSISGYYWSWIRQPPVKGLEWIGYIFYSGYTKYNPSLKSRVTISVDTSKNQFSLKLSSVTAADTAVYYCARDRWDFDYWGQGALVTVSS VL: AIQMTQSPSYLSASVGDRVTIACRASQGIRNNLGWYQQKPGKAPKLLIYAESSLQSGVPSRFSGSGSGTDFTLTISSLQPEDFATYYCLQDFNYPYTFGQGTKLEIK | 1.1 | 0.22 | 1.41 | 1.35 | – | – | – | – | – | – |
| anti-CD30L clone 1 (antibody, V domains shown, From mice with humanized immunoglobulin locus; elsewhere tested as mouse IgG and human IgG1; also called clone 1 parental) VH: QVQLQESGPGLVKPSETLSLTCTVSGGSISGYYWSWIRQPPVKGLEWIGYIFYSGYTKYNPSLKSRVTISVDTSKNQFSLKLSSVTAADTAVYYCARDRWDFDYWGQGALVTVSS VL: AIQMTQSPSYLSASVGDRVTIACRASQGIRNNLGWYQQKPGKAPKLLIYAESSLQSGVPSRFSGSGSGTDFTLTISSLQPEDFATYYCLQDFNYPYTFGQGTKLEIK | – | – | – | – | 3.59 | 3.02 | 1.28 | 77.3 | 208 | – |
| anti-CD30L clone 3 (antibody, V domains shown) VH: QVQLQESGPGLVKPSETLSLTCTVSGGSISGYYWSWIRQPPVKGLEWIGYIFYSGYTKYNPSLKSRVTISVDTSKNQFSLKLSSVTAADTAVYYCARDRWDFDYWGQGALVTVSS VL: not shown | – | – | – | – | 3.5 | 2.54 | 0.662 | 72.4 | 153 | – |
